Laboratory results taken from patent publication US20220056125A1 (CEPHALON, published 2022).
Positions count from the first letter of the chain named. Where “and” joins values, the source holds several entries; their conditions need not be identical. Equal entries are not always repeated.

T1: human PAR-1 (human, UniProt P25116 22-425)
T1 construct: also called huPAR-1
T1 sequence: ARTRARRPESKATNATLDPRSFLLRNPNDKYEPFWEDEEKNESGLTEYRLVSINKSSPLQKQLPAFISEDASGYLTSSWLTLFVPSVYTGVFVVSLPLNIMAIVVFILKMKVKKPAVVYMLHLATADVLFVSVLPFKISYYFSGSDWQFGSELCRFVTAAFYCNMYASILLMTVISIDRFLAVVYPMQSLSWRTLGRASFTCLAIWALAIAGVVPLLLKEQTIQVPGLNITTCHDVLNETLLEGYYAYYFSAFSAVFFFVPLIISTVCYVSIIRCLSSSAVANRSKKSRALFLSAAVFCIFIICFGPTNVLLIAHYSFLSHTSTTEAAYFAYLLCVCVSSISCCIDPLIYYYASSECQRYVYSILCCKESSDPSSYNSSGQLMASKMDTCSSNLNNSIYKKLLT

T2: human PAR-2 (human, UniProt P55085 26-397)
T2 sequence: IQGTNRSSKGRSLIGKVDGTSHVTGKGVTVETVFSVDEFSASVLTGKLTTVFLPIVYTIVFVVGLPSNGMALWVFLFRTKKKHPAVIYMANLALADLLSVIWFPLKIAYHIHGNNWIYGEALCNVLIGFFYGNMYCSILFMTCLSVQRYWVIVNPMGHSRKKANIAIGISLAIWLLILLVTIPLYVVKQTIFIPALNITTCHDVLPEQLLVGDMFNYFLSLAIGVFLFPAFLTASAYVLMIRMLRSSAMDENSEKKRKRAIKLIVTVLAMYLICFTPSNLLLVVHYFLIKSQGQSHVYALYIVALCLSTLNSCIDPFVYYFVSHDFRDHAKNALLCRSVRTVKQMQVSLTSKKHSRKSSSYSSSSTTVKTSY

B1: Ab303 (antibody, human IgG4, V domains shown)
VH: QVTLKESGPGILQPSHTLSLTCSFSGFSLSTYGMGVSWIRQPSGKGLEWLASIWWNGNTYNNPSLKSRLTVSKDTSNNQAFLKVTSVDTADTATYYCAHTPNLGNWFAYWGQGTLVTVSS
VL: DIQMTQSPSFLSASVGERVTLSCKTSQKINRYLDWYQQKLGEAPKLLIYNTNNLHTGIPSRFSGSGSGTDYTLTISSLQPEDVATYFCLQHSSWPTFGAGTKLELK
notes: also called Anti-PAR-2 antibody # 303
B2: Ab335 (antibody, human IgG4, V domains shown)
VH: QVQLKESGPGLVQPSQTLSLSCTVSGFSLSTYGVIWVRQPPGKGLEWMGVIWGNGNTNYNSALKSRLSISRDTSKSQVFLKMNNLQSEDTAMYFCGRWRGYKDYPFDYWGQGVKVTVSS
VL: DIQMTQSPSFLSASVGDRVTINCKASRNIYKYLDWYQQKLGEAPKLLIYNTNNLHTGIPSRFSGSGSGTDFTLTISSLQPEDVATYFCLQHNSGWTFGGGTKLELK
notes: also called Anti-PAR-2 antibody # 335
B3: Ab311 (antibody, human IgG4, V domains shown)
VH: B2 VH with S30T, E46M, N58Y, A62P
VL: B2 VL with R27Q, T51S, N53I, I58V, T74S, T101S, K106R
notes: also called Anti-PAR-2 antibody # 311
B4: Ab323 (antibody, human IgG4, V domains shown)
VH: B2 VH with S21T, T23S, V34I, N58H, S70T, S87T, K114M
VL: B2 VL with R27Q, I48M, N53T
notes: also called Anti-PAR-2 antibody # 323
B5: Ab342 (antibody, human IgG4, V domains shown)
VH: B2 VH with S30N, E46D, N58Y, N60D, V78I, Y101F
VL: B2 VL with S7T, K24R, R27Q, Q38L, N53T, T96A
notes: also called Anti-PAR-2 antibody # 342
B6: Ab313 (antibody, human IgG4, V domains shown)
VH: EVQLKESGPGLVQPSQTLSLTCTVSGFSLTDYSVHWVRQPPGKGLEWMGVMWSGGSTSYNSPLKSRLSISRDTSKSQVFLKTNSLQTEDTAIYYCTRARPTVATLDYWGQGVMVTVSS
VL: DIQMTQSPSVLSASVGDRVILNCKASQKINKYLNWYQQKLGEAPKLLIYTTNNLQTGIPSRFSGSGSGTDFTLTISSLQPEDFATYFCFQHSSWPTFGAGTKLELK
notes: also called Anti-PAR-2 antibody # 313
B7: Ab343 (antibody, human IgG4, V domains shown)
VH: EVQLVESGGGLVQPGRSLKLSCVASGFTFNNYWMSWIRQAPGKGLEWVASITNTGGRIFYPDSVKGRFTISRDNAQNTLYLQMNSLRSEDAATYYCTRDRLYYGSNWFTYWGQGTLVTVSS
VL: DIQMTQSPHSLSASLGETVSIECLASEAISNYLAWYQQKPGKSPQLLIYYASSLKDGVPSRISGSGSGTQYSLKISNMQPEDEGVYYCQQGYKYPRTFGGGTKLELK
notes: also called Anti-PAR-2 antibody # 343
B8: Ab348 (antibody, human IgG4, V domains shown)
VH: QVQLKESGPGLVQPSQTLSLTCSVSGFSLSSYGVIWVRQPPGKGLEWMGVVWGNGNTAYNFTLKSRLTISRDTSKSQVFLKMNNLQTEDTAMYFCGRWRGFKDYPFDYWGQGVMVTVSS
VL: B2 VL with R27Q, N53S
notes: also called Anti-PAR-2 antibody # 348
B9: Ab360 (antibody, human IgG4, V domains shown)
VH: EVQLVESGGGLVQPGRSLKLSCVASGFTFNNYWMTWIRQAPGKGLEWVASITNTGGSTYYPDSVKGRFTISRDNAKSTLYLQMNSLRSEDTATYYCTREGIRGTGWFAYWGQGTLVTVSS
VL: DTVLTQSPALAVSPGERVTISCRASESVRTRMHWYQQRPGQQPKLLIYGASNPESGVPARFSGSGSGTDFTLTIDPVEADDSATYFCHQSWNEYTFGAGTKLELK
notes: also called Anti-PAR-2 antibody # 360
B10: Ab392 (antibody, human IgG4, V domains shown)
VH: EVQLVESGGGLVQPGRSLKLSCVASGFTFNNKWMTWIRQAPGKGLEWIASITNTGGRTFYPDSVKGRFTISRDDAKSTLYLQMNSLRSEDTATYYCTRATIRRGASYFDYWGQGVMVTVSS
VL: B7 VL with T18G, A28G, Y36F, K55Q, I62F, R96W
notes: also called Anti-PAR-2 antibody # 392
B11: Ab86 (antibody, human IgG4, V domains shown)
VH: EVQLVESGGGLVQPKGSLKLSCAASGFTFNTYAMHWVRQAPGKGLEWVARIRSKNVHYATYYADSVKDRFTISRDDSQNMLYLQMNNLKTEDTAMYYCVREDYYGSSYDYWGQGTTLTVSS
VL: DIVMTQSHKFMSTSLGDRVSITCKASQDVGSAVAWHQQKPGQSPKVLIYWASNRHTGVPDRFTGSGSGTDFTLTISNVQSEDLADYFCQQYSSYPFTFGSGTKLEIK
notes: also called Anti-PAR-2 antibody # 86
B12: Ab84 (antibody, human IgG4, V domains shown)
VH: B11 VH with V5I, T31S, N79S, Y97F
VL: B11 VL with L15V, V46L, A51T, S65R, G66R, S93T
notes: also called Anti-PAR-2 antibody # 84
B13: Ab87 (antibody, human IgG4, V domains shown)
VH: B11 VH with N30Y, T31S, K43R
VL: B11 VL with L15V, G30R, V46L
notes: also called Anti-PAR-2 antibody # 87
B14: Ab114 (antibody, human IgG4, V domains shown)
VH: QVQLQQSGPELVKPGASVKISCKTSGFTFTSYYIHWVKQRPGQGLEWIGWIYPGSGNTYYNERFKGKATLTADTSSSTASMQLSSLTSEDSAVYYCANGPLFYGSSYWYFDVWGTGTTVTVSS
VL: DVQITQSPSYLAASPGETITINCRASKSISRYLAWYQEKPGKTNKLLIYSGSTLQSGVPSRFSGSGFGTDFTLTISSLEPEDFAMYYCQQHNKYPLTFGAGTKLELK
notes: also called Anti-PAR-2 antibody # 114
B15: P24E976 (antibody, human IgG4 S228P, kappa, V domains shown)
VH: QVQLVQSGAEVKKPGSSVKVSCKASGFSLSSYAISWVRQAPGQGLEWMGVIWGNQNVYYAQKFQGRVTITADESTSTAYMELSSLRSEDTAVYYCARWKGYKDYPFDYWGQGTLVTVSS
VL: EIVLTQSPATLSLSPGERATLSCRASQNVYKWLDWYQQKPGQAPRLLIYNAYSRATGIPARFSGSGSGRDFTLTISSLEPEDFAVYYCQQHHSGWTFGGGTKVEIKR
B16: P24E1099 (antibody, human IgG4 S228P, kappa, V domains shown)
VH: B15 VH
VL: B15 VL with Y52N
B17: P24E1103 (antibody, human IgG4 S228P, kappa, V domains shown)
VH: B15 VH
VL: B15 VL with Y52N, S53N

target: T1, human PAR-1; assay: flow cytometry, transfected Expi293F cells
Description: Paired heavy and light chains encoded by these sequence pairs were expressed as a full length human IgG4 isotype antibodies and assessed for PAR-2 binding and selectivity by flow cytometry. […] Cells were used for flow cytometric analysis 36-48 hours post-transfection. Use of Nt-PAR-2 as a target allowed antibodies which bound the N-terminal residues of PAR-2 (which comprise the protease-cleavage sites on PAR-2) to be distinguished from antibodies which bound other extracellular sites on PAR-2, such as the PAR-2-activating ligand-binding site(s). Expi293F cells, transiently expressing one of each of the different target proteins were labelled with different intensities of a single fluorphor Encoder dye (Intellicyt) for 10 mins at either 1 in 250 dilution for high intensity and/or 1 in 1500 dilution for moderate intensity, enabling simultaneous analysis of multiple cell populations. After washing the cells were then mixed in an equal ratio with the unlabeled cell type and analyzed for antibody binding.
The cells were plated in 96 well plates at 2×10⁵ cells/well. Following a wash step using Phosphate buffered saline (PBS), the primary antibody (anti-PAR-2 antibody) was added at a concentration of 10 μg/mL in 50 μL of FACS buffer (0.5% w/v BSA in PBS) to each well and incubated for 10-15 mins. Following a wash step, secondary antibody (anti-human Fc-FITC) was added to the wells at 1:200 dilution in 50 μL for 10-15 mins. Following a washing step, the cells were re-suspended in fluorescence-activated cell sorting (FACS) buffer. The flow cytometry analysis was performed on an Intellicyt iQue screener. Gates were drawn around the different intensities of encoder dye-positive cells and these populations were analyzed separately from each other and the unlabeled cells for binding by the primary antibody.

Binder | binding result
B1 | no binding (tested: 10 µg/mL)
B2 | no binding (tested: 10 µg/mL)
B3 | no binding (tested: 10 µg/mL)
B4 | no binding (tested: 10 µg/mL)
B5 | no binding (tested: 10 µg/mL)
B6 | no binding (tested: 10 µg/mL)
B7 | no binding (tested: 10 µg/mL)
B8 | no binding (tested: 10 µg/mL)
B9 | no binding (tested: 10 µg/mL)
B10 | no binding (tested: 10 µg/mL)
B11 | no binding (tested: 10 µg/mL)
B12 | no binding (tested: 10 µg/mL)
B13 | no binding (tested: 10 µg/mL)
B14 | no binding (tested: 10 µg/mL)

target: T2, human PAR-2; assay: cell-based or functional assay

Binder | Calcium flux IC50 | IL-6 release in A549 cells IC50 [nM] | IL-8 release in A549 cells IC50 [nM]
B15 | 15.9 nM and 15.3 nM and 7.1 nM and 5.9 nM | 5.63 | 4.25
B16 | 12.3 nM | 6.74 | 4.89
B17 | 12.7 nM | 7.18 | 5.17

target: T2, human PAR-2; assay: cell-based or functional assay; remark: another data set of the same source

Binder | PAR-2 β-arrestin cell based assay IC50, 2 µM SLIGKV
B15 | 0.9 nM and 1.26 nM
B16 | 1.37 nM
B17 | 1.54 nM

target: T2, human PAR-2; assay: cell-based or functional assay; remark: another data set of the same source

Binder | IC50, PAR-2 β-arrestin cell assay [nM]
B1 | 9
B2 | 2.5
B3 | 1.8
B4 | 2.1
B5 | 1.9
B6 | 8.2
B7 | 18.2
B8 | 2.7
B9 | 16
B10 | 13.7
B11 | 9.9
B12 | 6
B13 | 5.6
B14 | 36.7
